Measurements published in patent publication US10597674B2, “HPPD variants and methods of use” (BASF Agricultural Solutions Seed, US LLC, priority 2015, dated 2020).

How the values were obtained:
[1] = tested on: E. coli cells expressing an HPPD polypeptide; assay: Brown color bioassay in liquid culture, residual brown color formation (BCF), OD440 after 96 hours; format: cell-based; settings: for Control BCF OD440nm: brown color formation in absence of Cmpd. 1, culture supernatant after 96 hours, 5 mM HPP; for Residual BCF OD440nm [%]: brown color formation with Cmpd. 1 (1000 μM) relative to without, after 96 hours
In short: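 E. coli expressing HPPD variants were grown at 30 degrees Celsius from OD600 0.3-0.5 in LB with 5 mM HPP, with or without herbicide (e.g. Cmpd. 1, 1000 μM). After 96 hours, supernatant OD440 was measured; residual brown colour formation compares pigment with and without inhibitor.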

[2] = tested on: HPPD polypeptides (wild-type SEQ ID NO:1 and mutants); settings: low substrate concentration; for Residual activity: kapp in presence of 50 μM Cmpd. 1, normalised to kapp without inhibitor; for Residual turnover: total change in signal in presence of 50 μM Cmpd. 1, normalised to that without inhibitor

Row | Molecule | Control BCF OD440nm [1] | Residual BCF OD440nm [%] [1] [%] | Residual activity [2] [%] | Residual turnover [2] [%]
1 | 40 (protein, mutant HPPD polypeptide) MADLYENPMGLMGFEFIEFASPTPGTLEPIFEIMGFTKVATHRSKNVHLYRQGEINLILNNEPNSIASYFAAEHGPSVCGMAFRVKDSQKAYNRALELGAQPIHIDTGPMELNLPAIKGIGGAPLYLIDRFGEGSSIYDIDFVYLEGVERNPVGAGLKVIDHLTHNVYRGRMVYWANFYEKLFNFREARYFDIKGEYTGLTSKMMSAPDGMIRIPLNEESSKGAGQIEEFLMQFNGEGIQHVAFLTDDLVKTWDALKKIGMRFMTAPGDEYYEMLEGRLPDHGEPVDQLQARGILLDGSSVEGDKRLLLQIFSETLMGPVFFEFIQRKGDDGFGPDSFKVLFESVERDQVRRGVLTAD | 1.89 | 58 | 65 | 77
2 | 46 (protein, mutant HPPD polypeptide) MADLYENPMGLMGFEFIEFASPTPGTLEPIFEIMGFTKVATHRSKNVHLYRQGEINLILNNEPNSIASYFAAEHGPSVCGMAFRVKDSQKAYNRALELGAQPIHIDTGPMELNLPAIKGIGGAPLYLIDRFGEGSSIYDIDFVYLEGVERNPVGAGLKVIDHLTHNVYRGRMVYWANFYEKLFNFREARYFDIKGEYTGLTSKAMSAPDGMIRIPLNEESSKGAGQIEEFLMQFNGEGIQHVAFLTDDLVKTWDALKKIGMRFMTAPGDEYYEMLEGRLPDHGEPVDQLQARGILLDGSSVEGDKRLLLQIFSEMLMGPVFFEFIQRKGDDGFGPDSFKVLFESVERDQVRRGVLTAD | 2.47 | 66 | 32 | 59
3 | 72 (protein, mutant HPPD polypeptide) MADLYENPMGLMGFEFIEFASPTPGTLEPIFEIMGFTKVATHRSKNVHLYRQGEINLILNNEPNSIASYFAAEHGPSVCGMAFRVKDSQKAYNRALELGAQPIHIDTGPMELNLPAIKGIGGAPLYLIDRFGEGSSIYDIDFVYLEGVERNPVGAGLKVIDHLTHNVYRGRMVYWANFYEKLFNFREARYFDIKGEYTGLTSKAMSAPDGMIRIPLNEESSKGAGQIEEFLMQFNGEGIQHVAFLTDDLVKTWDALKKIGMRFMTAPRDEYYEMLEGRLPDHGEPVDQLQARGILLDGSSVEGDKRLLLQIFSETLMGPVFFEFIQRKGDDGFGPDSFKVLFESVERDQVRRGVLTAD | 2.77 | 72 | 25 | 55
4 | 44 (protein, mutant HPPD polypeptide) MADLYENPMGLMGFEFIEFASPTPGTLEPIFEIMGFTKVATHRSKNVHLYRQGEINLILNNEPNSIASYFAAEHGPSVCGMAFRVKDSQKAYNRALELGAQPIHIDTGPMELNLPAIKGIGGAPLYLIDRFGEGSSIYDIDFVYLEGVERNPVGAGLKVIDHLTHNVYRGRMVYWANFYEKLFNFREARYFDIKGEYTGLTSKAMSAPDGMILIPLNEESSKGAGQIEEFLMQFNGEGIQHVAFLTDDLVKTWDALKKIGMRFMTAPGDEYYEMLEGRLPDHGEPVDQLQARGILLDGSSVEGDKRLLLQIFSETLMGPVFFEFIQRKGDDGFGPDSFKVLFESVERDQVRRGVLTAD | 1.60 | 40 | 58 | 78
5 | 56 (protein, mutant HPPD polypeptide) MADLYENPMGLMGFEFIEFASPTPGTLEPIFEIMGFTKVATHRSKNVHLYRQGEINLILNNEPNSIASYFAAEHGPSVCGMAFRVKDSQKAYNRALELGAQPIHIDTGPMELNLPAIKGIGGAPLYLIDRFGEGSSIYDIDFVYLEGVERNPVGAGLKVIDHLTHNVYRGRMVYWANFYEKLFNFREARYFDIKGEYTGLTSKAMSAPDGMIRIPLNEESSKGAGQIEEFLMQFNGEGIQHVAFLTDDLVKTWDALKKIGMRFMTAPGDEYYEMLEGRLPDHGEPVDQLQARGILLDGSSVEGDKRLLLQIFSETLMGPVFFEFIQRKGDDGFGPDSFRVLFESVERDQVRRGVLTAD | 1.98 | 68 | 27 | 59
6 | 57 (protein, mutant HPPD polypeptide) MADLYENPMGLMGFEFIEFASPTPGTLEPIFEIMGFTKVATHRSKNVHLYRQGEINLILNNEPNSIASYFAAEHGPSVCGMAFRVKDSQKAYNRALELGAQPIHIDTGPMELNLPAIKGIGGAPLYLIDRFGEGSSIYDIDFVYLEGVERNPVGAGLKVIDHLTHNVYRGRMVYWANFYEKLFNFREARYFDIKGEYTGLTSKAMSAPDGMIRIPLNEESSKGAGQIEEFLMQFNGEGIQHVAFLTDDLVKTWDALKKIGMRFMTAPGDEYYEMLEGRLPDHGEPVDQLQARGILLDGSSVEGDKRLLLQIFSETLMGPVFFEFIQRKGDDGFGPDSFTVLFESVERDQVRRGVLTAD | 1.39 | 46 | 33 | 68
7 | 81 (protein, mutant HPPD polypeptide) MADLYENPMGLMGFEFIEFASPTPGTLEPIFEIMGFTKVATHRSKNVHLYRQGEINLILNNEPNSIASYFAAEHGPSVCGMAFRVKDSQKAYNRALELGAQPIHIDTGPMELNLPAIKGIGGAPLYLIDRFGEGSSIYDIDFVYLEGVERNPVGAGLKVIDHLTHNVYRGRMVYWANFYEKLFNFREARYFDIKGEYTGLTSKAMSAPDGMIRIPLNEESSKGAGQIEEFLMQFNGEGIQHVAFLTDDLVKTWDALKKIGMRFMTAPGDEYYEMLEGRLPDHGEPVDQLQARGILLDGSSVEGDKRLLLQIFSETLMGPVFFEFIQRKGDDGFGPDSFKALFESVERDQVRRGVLTAD | 2.05 | 39 | 17 | 51
8 | 52 (protein, mutant HPPD polypeptide) MADLYENPMGLMGFEFIEFASPTPGTLEPIFEIMGFTKVATHRSKNVHLYRQGEINLILNNEPNSIASYFAAEHGPSVCGMAFRVKDSQKAYNRALELGAQPIHIDTGPMELNLPAIKGIGGAPLYLIDRFGEGSSIYDIDFVYLEGVERNPVGAGLKVIDHLTHNVYRGRMVYWANFYEKLFNFREARYFDIKGEYTGLTSKAMSAPDGMIRIPLNEESSKGAGQIEEFLMQFNGEGIQHVAFLTDDLVKTWDALKKIGMRFMTAPGDEYYEMLEGRLPDHGEPVDQLQARGILLDGSSVEGDKRLLLQIFSETLMGPVFFEFIQRKGDSGFGPDSFKVLFESVERDQVRRGVLTAD | 2.08 | 65 | 31 | 57
9 | 76 (protein, mutant HPPD polypeptide) MADLYENPMGLMGFEFIEFASPTPGTLEPIFEIMGFTKVATHRSKNVHLYRQGEINLILNNEPNSIASYFAAEHGPSVCGMAFRVKDSQKAYNRALELGAQPIHIDTGPMELNLPAIKGIGGAPLYLIDRFGEGSSIYDIDFVYLEGVERNPVGAGLKVIDHLTHNVYRGRMVYWANFYEKLFNFREARYFDIKGEYTGLTSKAMSAPDGMIRIPLNEESSKGAGQIEEFLMQFNGEGIQHVAFLTDDLVKTWDALKKIGMRFMTAPGDRYYEMLEGRLPDHGEPVDQLQARGILLDGSSVEGDKRLLLQIFSETLMGPVFFEFIQRKGDDGFGPDSFKVLFESVERDQVRRGVLTAD | 2.73 | 58 | 19 | 50
10 | 77 (protein, mutant HPPD polypeptide) MADLYENPMGLMGFEFIEFASPTPGTLEPIFEIMGFTKVATHRSKNVHLYRQGEINLILNNEPNSIASYFAAEHGPSVCGMAFRVKDSQKAYNRALELGAQPIHIDTGPMELNLPAIKGIGGAPLYLIDRFGEGSSIYDIDFVYLEGVERNPVGAGLKVIDHLTHNVYRGRMVYWANFYEKLFNFREARYFDIKGEYTGLTSKAMSAPDGMIRIPLNEESSKGAGQIEEFLMQFNGEGIQHVAFLTDDLVKTWDALKKIGMRFMTAPGDSYYEMLEGRLPDHGEPVDQLQARGILLDGSSVEGDKRLLLQIFSETLMGPVFFEFIQRKGDDGFGPDSFKVLFESVERDQVRRGVLTAD | 2.57 | 67 | 19 | 44
11 | 73 (protein, mutant HPPD polypeptide) MADLYENPMGLMGFEFIEFASPTPGTLEPIFEIMGFTKVATHRSKNVHLYRQGEINLILNNEPNSIASYFAAEHGPSVCGMAFRVKDSQKAYNRALELGAQPIHIDTGPMELNLPAIKGIGGAPLYLIDRFGEGSSIYDIDFVYLEGVERNPVGAGLKVIDHLTHNVYRGRMVYWANFYEKLFNFREARYFDIKGEYTGLTSKAMSAPDGMIRIPLNEESSKGAGQIEEFLMQFNGEGIQHVAFLTDDLVKTWDALKKIGMRFMTAPSDEYYEMLEGRLPDHGEPVDQLQARGILLDGSSVEGDKRLLLQIFSETLMGPVFFEFIQRKGDDGFGPDSFKVLFESVERDQVRRGVLTAD | 2.75 | 72 | 29 | 58
12 | 67 (protein, mutant HPPD polypeptide) MADLYENPMGLMGFEFIEFASPTPGTLEPIFEIMGFTKVATHRSKNVHLYRQGEINLILNNEPNSIASYFAAEHGPSVCGMAFRVKDSQKAYNRALELGAQPIHIDTGPMELNLPAIKGIGGAPLYLIDRFGEGSSIYDIDFVYLEGVERNPVGAGLKVIDHLTHNVYRGRMVYWANFYEKLFNFREARYFDIKGEYTGLTSKAMSAPDGMIRIPLNEESSKGAGQIEEFLMQFNGEGIQHVAFLTDDLVKTWDALKKIGMRFKTAPGDEYYEMLEGRLPDHGEPVDQLQARGILLDGSSVEGDKRLLLQIFSETLMGPVFFEFIQRKGDDGFGPDSFKVLFESVERDQVRRGVLTAD | 1.93 | 71 | 73 | 96
